Biological target: T1, OX1R-Rluc (human, UniProt O43613 1-425)
T1 construct: Orexin type 1 receptor (OX1R), human cDNA (pcDNA3.1-OX1R, cDNA Resource Centre); construct made 'as described'; BRET donor; also called orexin type 1 receptor; Orexin 1 receptor; source: HEK293, transiently transfected, in living cells; not shown: Rluc, C-terminal, kept
T1 sequence (looked up): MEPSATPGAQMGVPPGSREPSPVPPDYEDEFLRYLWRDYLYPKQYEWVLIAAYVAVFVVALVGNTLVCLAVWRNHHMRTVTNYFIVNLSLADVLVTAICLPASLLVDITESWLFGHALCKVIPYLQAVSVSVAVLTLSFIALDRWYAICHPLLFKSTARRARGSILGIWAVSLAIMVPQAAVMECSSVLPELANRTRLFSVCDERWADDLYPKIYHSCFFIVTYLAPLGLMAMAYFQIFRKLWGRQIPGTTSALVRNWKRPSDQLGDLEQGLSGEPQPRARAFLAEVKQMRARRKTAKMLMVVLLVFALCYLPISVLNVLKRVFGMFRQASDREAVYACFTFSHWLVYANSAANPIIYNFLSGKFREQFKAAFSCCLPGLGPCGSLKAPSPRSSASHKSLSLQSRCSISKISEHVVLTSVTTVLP
Experiment: FRET or BRET; BRET in living HEK293 cells; donor (Rluc fusion) and acceptor (EYFP fusion) plasmids 1:3; coelenterazine h 5 μM; also after ghrelin (100 nM) and/or orexin-A (100 nM) or vehicle for 10 min
Settings: partners not purified

B1: GHSR1a-EYFP (receptor, UniProt Q92847 1-366, looked up)
chain: MWNATPSEEPGFNLTLADLDWDASPGNDSLGDELLQLFPAPLLAGVTATCVALFVVGIAGNLLTMLVVSRFRELRTTTNLYLSSMAFSDLLIFLCMPLDLVRLWQYRPWNFGDLLCKLFQFVSESCTYATVLTITALSVERYFAICFPLRAKVVVTKGRVKLVIFVIWAVAFCSAGPIFVLVGVEHENGTDPWDTNECRPTEFAVRSGLLTVMVWVSSIFFFLPVFCLTVLYSLIGRKLWRRRRGDAVVGASLRDQNHKQTVKMLAVVVFAFILCWLPFHVGRYLFSKSFEPGSLEIAQISQYCNLVSFVLFYLSAAINPILYNIMSKKYRVAVFRLLGFEPFSQRKLSTLKDESSRAWTESSINT
notes: Growth hormone secretagogue receptor 1α (GHSR1a); ORF inserted into the EYFP-N1 vector; cDNA from pcDNA3.1-GHSR1a (cDNA Resource Centre); BRET and FRET acceptor; The FRET methods call it EYFP-GHSR1a, but the construction paragraph puts EYFP on the C-terminus; also called growth hormone secretagogue receptor 1α; EYFP-GHSR1a; source: HEK293, transiently transfected, in living cells; not shown: …
mBRET ratio: 190

Source: PMC6056640, “Ghrelin Through GHSR1a and OX1R Heterodimers Reveals a Gαs–cAMP-cAMP Response Element Binding Protein Signaling Pathway in Vitro” (Frontiers in Molecular Neuroscience, 2018)
